In patent US20120258109A1 (Eli Lilly, published 2012):

Experiments:
Rat TGF-alpha [1] = molecular target: T1, Rat TGF-alpha (rat, UniProt P01134 39-88); test: cell-based or functional assay
Met-human Epiregulin [2] = molecular target: T2, Met-human Epiregulin (human, UniProt O14944 63-108); test: cell-based or functional assay
Mouse Epiregulin [3] = molecular target: T3, Mouse Epiregulin (mouse, UniProt Q61521 56-101); test: cell-based or functional assay
Human Epigen = Human Epigen (human, UniProt Q6UW88 24-104, limits assumed); test: cell-based or functional assay
Rat TGF-alpha [4] = molecular target: T1, Rat TGF-alpha; test: SPR (Biacore), antibody captured by anti-human Fc, ligand in solution, 25 C
Procedure: (§1) Biacore T2000 instrument (BIAcore® AB, Upsala, Sweden), reagents and Biacore T2000 Evaluation Software Ver 4.1 are used for the Surface Plasmon Resonance analysis. A CM5 chip is prepared using manufacturer's EDC/NHS amine coupling method. The surfaces of all four flow cells are activated by injecting a 1:1 mixture of EDC/NHS for 7 minutes at 10 μL/min. Goat anti-human Fc γ specific antibody is diluted to 50 μg/ml in 10 mM acetate, pH 4.0 buffer and immobilized for approximately 10000 RU onto all four flow cells by 7 minute injection at a flow rate of 10 μL/min. Un-reacted sites are blocked with a 7 minute injection of ethanolamine at 10 μL/min. Injections of 3×20 seconds of glycine pH 1.5 at 30 μL/min are used to remove non-covalently associated protein. The running buffer is HBS-EP [10 mM HEPES, 150 mM Sodium Chloride, 3 mM EDTA, 0.005% Polysorbate 20].
(§2) Duplicate injections of each ligand concentration are injected at 30 μL/min for 300 seconds followed by a dissociation phase. […] Regeneration is performed by injecting 10 mM glycine pH 1.5 for 3×20 seconds at 30 μL/min over all flowcell.
(§3) Reference-subtracted data are collected as Fc2−Fc1. The measurements are obtained at 25° C. The on-rate (kₒₙ) and off-rate (koff) for each ligand are evaluated using a “1:1 (Langmuir) Binding” binding model. The affinity (KD) is calculated from the binding kinetics according to the relationship: KD=koff/kₒₙ.

Met-human Epiregulin [5] = molecular target: T2, Met-human Epiregulin; test: as above
Procedure: as §1, §2, §3

Cynomolgus Epiregulin = Cynomolgus Epiregulin (cynomolgus, UniProt O14944 63-108 (human entry), limits assumed); test: as above
Procedure: as §1, §2, §3

Mouse Epiregulin [6] = molecular target: T3, Mouse Epiregulin; test: as above
Procedure: as §1, §2, §3

Human TGF-alpha = Human TGF-alpha (human, UniProt P01135 40-89); test: cell-based or functional assay
Mouse Epiregulin [7] = molecular target: T3, Mouse Epiregulin; test: SPR (Biacore), antibody captured on the chip, ligand in solution, 25 C
Procedure: as §1
(§4) Duplicate injections of each ligand concentration are injected at 30 μL/min for 300 seconds followed by a dissociation phase. […] Regeneration is performed by injecting 10 mM glycine pH 1.5 for 30 seconds at 30 μL/min over all flowcell.
as §3

Mouse TGF-alpha = Mouse TGF-alpha (mouse, UniProt P48030 39-88, limits assumed); test: as above
Procedure: as §1, §4, §3

B1: Antibody I (antibody, human IgG4 S228P, kappa, F234A L235A, V domains shown)
VH: QVQLVQSGAEVKKPGSSVKVSCKASGYTFTDAYINWVRQAPGQGLEWMGWIWPGPVITYYNPKFKGRVTITADKSTSTAYMELSSLRSEDTAVYYCARREVLSPFAYWGQGTTVTVSS
VL: DIVMTQSPDSLAVSLGERATINCRSSQSIVHSTGNTYLEWYQQKPGQPPKLLIYKVSNRFSGVPDRFSGSGSGTDFTLTISSLQAEDVAVYYCFHGTHVPYTFGGGTKVEIKR
- IC50 (nM), MFc7 proliferation assay (BrDU), ligand at 0.5 nM (Rat TGF-alpha [1]): 0.19 nM
- IC50 (nM), MFc7 proliferation assay (BrDU), ligand at 0.5 nM (Met-human Epiregulin [2]): 3.15 nM
- IC50 (nM), MFc7 proliferation assay (BrDU), ligand at 0.5 nM (Mouse Epiregulin [3]): 334 nM
- IC50 (nM), MFc7 proliferation assay (BrDU), ligand at 100 nM (Human Epigen): 807 nM
- Kd (Rat TGF-alpha [4]): 0.0705 nM
- Kd (Met-human Epiregulin [5]): 1.29 nM
- Kd (Cynomolgus Epiregulin): 1.05 nM
- Kd (Mouse Epiregulin [6]): 342 nM

B2: Antibody III (antibody, mouse IgG1, kappa, V domains shown)
VH: QVQLQQSGPELVKPGASVKISCKASGYTFTDAYINWVKQRPGQGLEWIGWIWPGPVITYYNPKFKGKATLTVDKSSSTAYMLLSSLTSEDSAFYFCARREVLSPFAYWGQGTLVTVSA
VL: DVLMTQTPLSLPVSLGDQASISCRSSQSIVHSTGNTYLEWYLQKPGQSPKLLIYKVSNRFSGVPDRFSGSGSGTDFTLKISRVEAEDLGVYYCFHGTHVPYTFGGGTKLEIKR
notes: same six CDRs as Antibody I
- IC50 (nM), MFc7 proliferation assay (BrDU) (Human TGF-alpha): 0.52 nM
- IC50 (nM), MFc7 proliferation assay (BrDU), ligand at 0.5 nM (Rat TGF-alpha [1]): 0.13 nM
- IC50 (nM), MFc7 proliferation assay (BrDU) (Met-human Epiregulin [2]): 1.12 nM
- IC50 (nM), MFc7 proliferation assay (BrDU), ligand at 0.5 nM (Mouse Epiregulin [3]): 214 nM
- Kd (Mouse Epiregulin [7]): 215 nM
- koff (Mouse Epiregulin [7]): 0.0141 s⁻¹
- kon (Mouse Epiregulin [7]): 65500 M⁻¹ s⁻¹
- Kd (Mouse TGF-alpha): 0.038 nM
- koff (Mouse TGF-alpha): 2.02e-05 s⁻¹
- kon (Mouse TGF-alpha): 541000 M⁻¹ s⁻¹
